Experimental data as given in the supplement of paper PMC7125110.
± gives the standard error. For part of these data: Variants at the floor of the assay were thinned out.

B1: glmS ribozyme (parent)
chain: AUAAAAGCGCCAGAACUACAGAAAUGUAGUUGACGAGGAGGAGGUUUAUCGAAUUUUCGGCGGAUGCCUCCAAA

Tests used:
Details in all cases: with glucosamine-6-phosphate
glucosamine-6-phosphate [1] = variants of: B1; test: kcat; higher = faster cleavage; RNA array
Procedure, shortened: (§1)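 The measurements used barcoded ribozyme variants on sequenced MiSeq chips, transcribed in situ by E. coli RNA polymerase and tracked at 37 °C with a hybridised Cy3 probe. Glucosamine-6-phosphate, 40 μM to 10 mM in HEPES/KCl/Mg(OAc)2 buffer, was flowed in while tiles were imaged over ~14 h. Baseline-normalised signals, also normalised to non-cleaving reference variants, gave per-tile medians that were fit to one- or two-exponential decays for kobs. kcat and KM resulted from weighted Michaelis–Menten fits across concentrations.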

glucosamine-6-phosphate [2] = variants of: B1; test: self-cleavage kobs at 160 uM GlcN6P; higher = faster cleavage; RNA array
Procedure, shortened: as §1

glucosamine-6-phosphate [3] = variants of: B1; test: self-cleavage kobs at 640 uM GlcN6P; higher = faster cleavage; RNA array
Procedure, shortened: as §1

glucosamine-6-phosphate [4] = variants of: B1; test: self-cleavage kobs at 2500 uM GlcN6P; higher = faster cleavage; RNA array
Procedure, shortened: as §1

glucosamine-6-phosphate [5] = variants of: B1; test: self-cleavage kobs at 10000 uM GlcN6P; higher = faster cleavage; RNA array
Procedure, shortened: as §1

glucosamine-6-phosphate [6] = variants of: B1; test: KM; higher = weaker cofactor use; RNA array
Procedure, shortened: as §1

glucosamine-6-phosphate [7] = variants of: B1; test: self-cleavage kobs at 40 uM GlcN6P; higher = faster cleavage; RNA array
Procedure, shortened: as §1

Row | Variant | kcat (glucosamine-6-phosphate [1]) [s⁻¹] | self-cleavage kobs at 160 uM GlcN6P (glucosamine-6-phosphate [2]) [s⁻¹] | self-cleavage kobs at 640 uM GlcN6P (glucosamine-6-phosphate [3]) [s⁻¹] | self-cleavage kobs at 2500 uM GlcN6P (glucosamine-6-phosphate [4]) [s⁻¹] | self-cleavage kobs at 10000 uM GlcN6P (glucosamine-6-phosphate [5]) [s⁻¹] | KM (glucosamine-6-phosphate [6]) [µM] | self-cleavage kobs at 40 uM GlcN6P (glucosamine-6-phosphate [7]) [s⁻¹]
1 | A15C C70G | 7.11e-05 ± 7.6e-06 | 3.9e-05 ± 9.7e-06 | 6.25e-05 ± 8.5e-06 | 8.13e-05 ± 1e-05 | 5.86e-05 ± 9.3e-06 |  | 
2 | U30A U49A C68A C71G | 4.8e-05 ± 2.1e-05 |  | 7.12e-05 ± 2.8e-05 |  |  |  | 
3 | A14U U47G | 0.00156 ± 0.00026 | 0.000115 ± 1.4e-05 | 0.000416 ± 4.8e-05 | 0.000947 ± 0.00011 | 0.00132 ± 0.00013 | 1750 ± 450 | 5.6e-05 ± 8.8e-06
4 | G13A C16U | 0.000763 ± 9.4e-05 | 4.29e-05 ± 1.2e-05 | 0.000172 ± 2.2e-05 | 0.000459 ± 5.5e-05 | 0.000577 ± 7.9e-05 | 2220 ± 460 | 
5 | U54A G59U | 0.000197 ± 2.9e-05 |  |  |  | 5.84e-05 ± 1e-05 |  | 
6 | G41C U54C | 0.000229 ± 4e-05 |  | 0.000132 ± 2.8e-05 | 0.000162 ± 3.3e-05 | 0.000204 ± 2.4e-05 |  | 
7 | A12G G66C | 8.51e-05 ± 6.1e-06 |  | 4.42e-05 ± 1.9e-05 | 5.86e-05 ± 1.3e-05 | 8.08e-05 ± 1.3e-05 | 857 ± 290 | 
8 | G38A C71A | < 1e-05 |  |  |  | < 1e-05 |  | 
9 | A64G U65C C70G | 1.52e-05 ± 6.7e-06 |  |  |  |  |  | 
10 | A12U G44U | 0.000852 ± 0.00012 | 7.54e-05 ± 1.9e-05 | 0.000264 ± 4.7e-05 | 0.000645 ± 0.0001 | 0.000739 ± 8e-05 | 1290 ± 350 | 3.83e-05 ± 8.2e-06
11 | C11G A39U | < 1e-05 | < 1e-05 |  | < 1e-05 |  |  | 
12 | G40C G41U | 8.06e-05 ± 2.1e-05 |  |  | 8.04e-05 ± 1.1e-05 | 6.61e-05 ± 7.9e-06 |  | 
13 | C61G C67G C70G | < 1e-05 |  |  |  |  |  | 
14 | U56A G66C | 0.000237 ± 5.7e-05 |  | 0.000107 ± 1.6e-05 | 0.000132 ± 3.9e-05 | 0.000238 ± 4.6e-05 |  | 
15 | C11U G66A | 0.000908 ± 0.00021 |  | 0.000205 ± 6e-05 | 0.000661 ± 0.00015 | 0.000673 ± 0.00012 | 2510 ± 1100 | 
16 | G62C U69A | 1.17e-05 ± 3.8e-06 |  |  |  |  |  | 
17 | A33C A39G | 0.0011 ± 0.0002 |  | 0.000138 ± 1.9e-05 | 0.000373 ± 9.9e-05 | 0.000722 ± 8.1e-05 | 5030 ± 1400 | 
18 | A14U U45A | 0.0137 ± 0.0043 | 0.00102 ± 0.00029 | 0.00404 ± 0.00082 | 0.00683 ± 0.0026 | 0.0148 ± 0.004 | 1480 ± 610 | 0.000446 ± 7.7e-05
19 | C8U G38A | < 1e-05 |  |  |  |  | 371 ± 120 | < 1e-05

Row | Variant | kcat (glucosamine-6-phosphate [1]) [s⁻¹] | self-cleavage kobs at 160 uM GlcN6P (glucosamine-6-phosphate [2]) [s⁻¹] | self-cleavage kobs at 640 uM GlcN6P (glucosamine-6-phosphate [3]) [s⁻¹] | self-cleavage kobs at 2500 uM GlcN6P (glucosamine-6-phosphate [4]) [s⁻¹] | self-cleavage kobs at 10000 uM GlcN6P (glucosamine-6-phosphate [5]) [s⁻¹] | KM (glucosamine-6-phosphate [6]) [µM] | self-cleavage kobs at 40 uM GlcN6P (glucosamine-6-phosphate [7]) [s⁻¹]
20 | G32U U45G | 0.000699 ± 0.00027 |  |  | 6.97e-05 ± 1.1e-05 | 0.000203 ± 2.1e-05 |  | 
21 | U45C A48C | < 1e-05 | < 1e-05 |  |  |  |  | 
22 | C16U U30C | 7.72e-05 ± 8.6e-06 | 3.52e-05 ± 1.7e-05 | 6.63e-05 ± 2.2e-05 | 5.88e-05 ± 8.5e-06 | 8.45e-05 ± 9.1e-06 |  | < 1e-05
23 | C16U U30A | 0.003 ± 0.00083 | 0.000131 ± 2.6e-05 | 0.000648 ± 0.00011 | 0.00171 ± 0.00029 | 0.00242 ± 0.00027 | 2310 ± 910 | 7.15e-05 ± 7.9e-06
24 | U46G A64C | 1.9e-05 ± 5.9e-07 |  |  |  |  | 227 ± 47 | < 1e-05
25 | C16G U46G | 0.000671 ± 0.00023 | 5.87e-05 ± 2.1e-05 | 0.000167 ± 4e-05 | 0.000703 ± 0.00022 | 0.000514 ± 0.00016 |  | 
26 | A52C C67G | 1.74e-05 ± 6.9e-06 |  |  |  |  |  | 
27 | A39G G43U | 0.000168 ± 1e-05 |  | 5.98e-05 ± 1.8e-05 | 0.000119 ± 3.3e-05 | 0.000149 ± 2.2e-05 | 1170 ± 240 | 
28 | C11U C58U | 3.64e-05 ± 4.6e-06 |  |  | 4.05e-05 ± 1.3e-05 | 3.32e-05 ± 7.1e-06 |  | 
29 | G51U C58U | < 1e-05 | < 1e-05 |  |  | < 1e-05 |  | 
30 | U31A C58G G62C A64C C67A | 1.85e-05 ± 3.6e-06 |  |  |  |  |  | 
31 | U45A A52G | 0.00326 ± 0.00073 | 0.000155 ± 2.1e-05 | 0.000699 ± 8.5e-05 | 0.00135 ± 0.00014 | 0.00293 ± 0.00044 | 2900 ± 900 | 5.17e-05 ± 1e-05
32 | U46G C68G | 0.000103 ± 4e-06 |  | 5.11e-05 ± 1.8e-05 | 7.97e-05 ± 1.8e-05 | 9.69e-05 ± 1.7e-05 | 678 ± 110 | 
33 | A33C C58U | < 1e-05 | < 1e-05 |  |  | < 1e-05 |  | 
34 | G44C U56A | 7.55e-05 ± 7.5e-06 |  |  | 3.9e-05 ± 1.4e-05 | 5.85e-05 ± 6.8e-06 | 2860 ± 1100 | 
35 | C16A U47G | 0.000198 ± 3e-05 | 6.15e-05 ± 1.2e-05 | 9.31e-05 ± 7.8e-06 | 0.000184 ± 2.7e-05 | 0.000186 ± 2.3e-05 | 631 ± 230 | 
36 | G62A U69G | 3.25e-05 ± 8.9e-06 |  | 3.57e-05 ± 1.7e-05 | 3.47e-05 ± 1.6e-05 |  |  | 
37 | U31C G66A | 0.00283 ± 0.00065 | 0.000128 ± 4.7e-05 | 0.000724 ± 8.4e-05 | 0.00127 ± 0.00017 | 0.00266 ± 0.00027 | 2030 ± 750 | 6.95e-05 ± 9.4e-06
